# Measured values from article PMC12416549 (2024).
# Biological target: T1, TNFR1 (Homo sapiens, UniProt P19438)
# T1 chain: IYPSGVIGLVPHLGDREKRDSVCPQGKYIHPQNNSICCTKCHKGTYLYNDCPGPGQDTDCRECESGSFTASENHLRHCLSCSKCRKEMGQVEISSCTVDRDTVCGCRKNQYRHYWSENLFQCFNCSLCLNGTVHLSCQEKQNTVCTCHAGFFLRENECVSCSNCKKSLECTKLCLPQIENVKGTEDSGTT
# Assay: yeast display SC50
row,Binder,apparent Kd (screen) [nM]
1,L93W (designed binder) MTLQELLREEALRRAEAEAFRYALELLAEKFPEQKEYLLDLAEEIESQIRSLSGVDVEDVRKFLDKEWAWVKELLAEHPAELAEVEAARAARWAELRAEVEAKVAA,0.539
2,E58Q (designed binder) MTLQELLREEALRRAEAEAFRYALELLAEKFPEQKEYLLDLAEEIESQIRSLSGVDVQDVRKFLDKEWAWVKELLAEHPAELAEVEAARAARLAELRAEVEAKVAA,0.653
3,L12K (designed binder) MTLQELLREEAKRRAEAEAFRYALELLAEKFPEQKEYLLDLAEEIESQIRSLSGVDVEDVRKFLDKEWAWVKELLAEHPAELAEVEAARAARLAELRAEVEAKVAA,0.539
4,Q48P (designed binder) MTLQELLREEALRRAEAEAFRYALELLAEKFPEQKEYLLDLAEEIESPIRSLSGVDVEDVRKFLDKEWAWVKELLAEHPAELAEVEAARAARLAELRAEVEAKVAA,3.99
5,S53N (designed binder) MTLQELLREEALRRAEAEAFRYALELLAEKFPEQKEYLLDLAEEIESQIRSLNGVDVEDVRKFLDKEWAWVKELLAEHPAELAEVEAARAARLAELRAEVEAKVAA,0.653
6,T2I (designed binder) MILQELLREEALRRAEAEAFRYALELLAEKFPEQKEYLLDLAEEIESQIRSLSGVDVEDVRKFLDKEWAWVKELLAEHPAELAEVEAARAARLAELRAEVEAKVAA,0.653
7,E81P (designed binder) MTLQELLREEALRRAEAEAFRYALELLAEKFPEQKEYLLDLAEEIESQIRSLSGVDVEDVRKFLDKEWAWVKELLAEHPAPLAEVEAARAARLAELRAEVEAKVAA,0.718
8,T2H (designed binder) MHLQELLREEALRRAEAEAFRYALELLAEKFPEQKEYLLDLAEEIESQIRSLSGVDVEDVRKFLDKEWAWVKELLAEHPAELAEVEAARAARLAELRAEVEAKVAA,0.869
9,K30P (designed binder) MTLQELLREEALRRAEAEAFRYALELLAEPFPEQKEYLLDLAEEIESQIRSLSGVDVEDVRKFLDKEWAWVKELLAEHPAELAEVEAARAARLAELRAEVEAKVAA,0.653
10,L26E (designed binder) MTLQELLREEALRRAEAEAFRYALEELAEKFPEQKEYLLDLAEEIESQIRSLSGVDVEDVRKFLDKEWAWVKELLAEHPAELAEVEAARAARLAELRAEVEAKVAA,0.79
11,V57R (designed binder) MTLQELLREEALRRAEAEAFRYALELLAEKFPEQKEYLLDLAEEIESQIRSLSGVDREDVRKFLDKEWAWVKELLAEHPAELAEVEAARAARLAELRAEVEAKVAA,0.79
12,E44W (designed binder) MTLQELLREEALRRAEAEAFRYALELLAEKFPEQKEYLLDLAEWIESQIRSLSGVDVEDVRKFLDKEWAWVKELLAEHPAELAEVEAARAARLAELRAEVEAKVAA,0.539
13,W68T (designed binder) MTLQELLREEALRRAEAEAFRYALELLAEKFPEQKEYLLDLAEEIESQIRSLSGVDVEDVRKFLDKETAWVKELLAEHPAELAEVEAARAARLAELRAEVEAKVAA,1.54
14,S47Y (designed binder) MTLQELLREEALRRAEAEAFRYALELLAEKFPEQKEYLLDLAEEIEYQIRSLSGVDVEDVRKFLDKEWAWVKELLAEHPAELAEVEAARAARLAELRAEVEAKVAA,0.49
15,E73R (designed binder) MTLQELLREEALRRAEAEAFRYALELLAEKFPEQKEYLLDLAEEIESQIRSLSGVDVEDVRKFLDKEWAWVKRLLAEHPAELAEVEAARAARLAELRAEVEAKVAA,0.539
16,Q34R (designed binder) MTLQELLREEALRRAEAEAFRYALELLAEKFPERKEYLLDLAEEIESQIRSLSGVDVEDVRKFLDKEWAWVKELLAEHPAELAEVEAARAARLAELRAEVEAKVAA,0.718
17,P32Y (designed binder) MTLQELLREEALRRAEAEAFRYALELLAEKFYEQKEYLLDLAEEIESQIRSLSGVDVEDVRKFLDKEWAWVKELLAEHPAELAEVEAARAARLAELRAEVEAKVAA,0.539

row,Binder,apparent Kd (screen) [nM]
1,V85C (designed binder) MTLQELLREEALRRAEAEAFRYALELLAEKFPEQKEYLLDLAEEIESQIRSLSGVDVEDVRKFLDKEWAWVKELLAEHPAELAECEAARAARLAELRAEVEAKVAA,0.446
2,Q48F (designed binder) MTLQELLREEALRRAEAEAFRYALELLAEKFPEQKEYLLDLAEEIESFIRSLSGVDVEDVRKFLDKEWAWVKELLAEHPAELAEVEAARAARLAELRAEVEAKVAA,13.8
3,E101A (designed binder) MTLQELLREEALRRAEAEAFRYALELLAEKFPEQKEYLLDLAEEIESQIRSLSGVDVEDVRKFLDKEWAWVKELLAEHPAELAEVEAARAARLAELRAEVAAKVAA,0.79
4,Q34C (designed binder) MTLQELLREEALRRAEAEAFRYALELLAEKFPECKEYLLDLAEEIESQIRSLSGVDVEDVRKFLDKEWAWVKELLAEHPAELAEVEAARAARLAELRAEVEAKVAA,1.05
5,L52K (designed binder) MTLQELLREEALRRAEAEAFRYALELLAEKFPEQKEYLLDLAEEIESQIRSKSGVDVEDVRKFLDKEWAWVKELLAEHPAELAEVEAARAARLAELRAEVEAKVAA,1.05
6,A19S (designed binder) MTLQELLREEALRRAEAESFRYALELLAEKFPEQKEYLLDLAEEIESQIRSLSGVDVEDVRKFLDKEWAWVKELLAEHPAELAEVEAARAARLAELRAEVEAKVAA,0.653
7,E9Q (designed binder) MTLQELLRQEALRRAEAEAFRYALELLAEKFPEQKEYLLDLAEEIESQIRSLSGVDVEDVRKFLDKEWAWVKELLAEHPAELAEVEAARAARLAELRAEVEAKVAA,0.49
8,A19Y (designed binder) MTLQELLREEALRRAEAEYFRYALELLAEKFPEQKEYLLDLAEEIESQIRSLSGVDVEDVRKFLDKEWAWVKELLAEHPAELAEVEAARAARLAELRAEVEAKVAA,10.4
9,E33V (designed binder) MTLQELLREEALRRAEAEAFRYALELLAEKFPVQKEYLLDLAEEIESQIRSLSGVDVEDVRKFLDKEWAWVKELLAEHPAELAEVEAARAARLAELRAEVEAKVAA,0.718
10,R13P (designed binder) MTLQELLREEALPRAEAEAFRYALELLAEKFPEQKEYLLDLAEEIESQIRSLSGVDVEDVRKFLDKEWAWVKELLAEHPAELAEVEAARAARLAELRAEVEAKVAA,11.4
11,R21H (designed binder) MTLQELLREEALRRAEAEAFHYALELLAEKFPEQKEYLLDLAEEIESQIRSLSGVDVEDVRKFLDKEWAWVKELLAEHPAELAEVEAARAARLAELRAEVEAKVAA,0.49
12,L93D (designed binder) MTLQELLREEALRRAEAEAFRYALELLAEKFPEQKEYLLDLAEEIESQIRSLSGVDVEDVRKFLDKEWAWVKELLAEHPAELAEVEAARAARDAELRAEVEAKVAA,0.869
13,W68M (designed binder) MTLQELLREEALRRAEAEAFRYALELLAEKFPEQKEYLLDLAEEIESQIRSLSGVDVEDVRKFLDKEMAWVKELLAEHPAELAEVEAARAARLAELRAEVEAKVAA,0.539
14,A106K (designed binder) MTLQELLREEALRRAEAEAFRYALELLAEKFPEQKEYLLDLAEEIESQIRSLSGVDVEDVRKFLDKEWAWVKELLAEHPAELAEVEAARAARLAELRAEVEAKVAK,1.05
15,A11N (designed binder) MTLQELLREENLRRAEAEAFRYALELLAEKFPEQKEYLLDLAEEIESQIRSLSGVDVEDVRKFLDKEWAWVKELLAEHPAELAEVEAARAARLAELRAEVEAKVAA,0.405
16,R21G (designed binder) MTLQELLREEALRRAEAEAFGYALELLAEKFPEQKEYLLDLAEEIESQIRSLSGVDVEDVRKFLDKEWAWVKELLAEHPAELAEVEAARAARLAELRAEVEAKVAA,0.869
17,D59P (designed binder) MTLQELLREEALRRAEAEAFRYALELLAEKFPEQKEYLLDLAEEIESQIRSLSGVDVEPVRKFLDKEWAWVKELLAEHPAELAEVEAARAARLAELRAEVEAKVAA,0.252
